Measurements from patent US20100254992A1.
pKd: −log10 of the molar value.

Molecular target: HuMCP-1-His6 Mutant-6 (66D → 66K) (human) (UniProt P13500)
Assay: Biacore, CNTO 888 captured, MCP-1-His6 in solution

HuMCP-1-His6 Mutant-6 (66D → 66K) (human), sequence (P13500 other isoform, or with tags, fused parts or gaps mutant, form in doubt): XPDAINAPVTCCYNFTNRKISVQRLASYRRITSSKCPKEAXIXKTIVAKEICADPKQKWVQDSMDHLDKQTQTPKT

CNTO 888 (antibody)
pKd: 10.43 | koff: 0.000186 s⁻¹ | kon: 5.09e+06 M⁻¹ s⁻¹
